Biological target: T1, recombinant purified full-length AurA (His-AurA) (UniProt O14965 1-403)
T1 sequence (looked up): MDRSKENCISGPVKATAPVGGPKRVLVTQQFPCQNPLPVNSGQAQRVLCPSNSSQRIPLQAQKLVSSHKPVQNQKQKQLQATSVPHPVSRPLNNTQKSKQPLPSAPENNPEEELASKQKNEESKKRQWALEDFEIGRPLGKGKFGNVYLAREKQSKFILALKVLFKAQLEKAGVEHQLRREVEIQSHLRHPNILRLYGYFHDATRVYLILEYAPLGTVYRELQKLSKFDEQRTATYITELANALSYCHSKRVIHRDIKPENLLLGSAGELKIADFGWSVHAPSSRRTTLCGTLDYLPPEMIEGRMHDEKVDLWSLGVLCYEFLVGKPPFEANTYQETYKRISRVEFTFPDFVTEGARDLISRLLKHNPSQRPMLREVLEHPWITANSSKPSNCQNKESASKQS
Assay: pull-down

B1: GST fused to aa 779-968 of the PC2 C terminus (domain or fragment, human, UniProt Q13563 779-968, looked up)
chain: RDDLEKEREDLDLDHSSLPRPMSSRSFPRSLDDSEEDDDEDSGHSSRRRGSISSGVSYEEFQVLVRRVDRMEHSIGSIVSKIDAVIVKLEIMERAKLKRREVLGRLLDGVAEDERLGRDSEIHREQMERLVREELERWESDDAASQISHGLGTPVGLNGQPRPRSSRPSSSQSTEGMEGAGGNGSSNVHV
  binding result: binds
